Experimental data from patent publication US7935343B2 (MedImmune Limited, dated 2011).

Columns and labels:
human IL-13 [1] = target: human IL-13 (human); test: cell-based or functional assay
human IL-13 [2] = target: human IL-13 (human); test: BIAcore, IgG coupled to the chip, IL-13 in flow
[3] = target: native human IL-13 released from HDLM-2 cells (human); test: cell-based or functional assay
human IL-13 [4] = target: human IL-13 (human); test: BIAcore, IgG4 coupled to the chip, IL-13 in flow
human IL-13 [5] = target: human IL-13 (human); test: cell-based or functional assay; remark: listed apart in the source
murine IL-13 = target: T1, murine IL-13 (murine); test: BIAcore, IgG4 coupled to the chip, IL-13 in flow
T1 chain: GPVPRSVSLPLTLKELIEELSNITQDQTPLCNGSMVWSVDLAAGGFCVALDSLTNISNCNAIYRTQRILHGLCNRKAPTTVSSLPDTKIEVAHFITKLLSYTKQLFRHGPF

Sequence of human IL-13 (human) (chain, as listed by the source): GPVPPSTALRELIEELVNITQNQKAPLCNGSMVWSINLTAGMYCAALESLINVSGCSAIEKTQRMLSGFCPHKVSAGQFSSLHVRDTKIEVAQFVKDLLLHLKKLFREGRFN
Sequence of native human IL-13 released from HDLM-2 cells (human) (chain, as listed by the source): as above

B1: BAK615E3 scFv (scFv, V domains shown)
VH: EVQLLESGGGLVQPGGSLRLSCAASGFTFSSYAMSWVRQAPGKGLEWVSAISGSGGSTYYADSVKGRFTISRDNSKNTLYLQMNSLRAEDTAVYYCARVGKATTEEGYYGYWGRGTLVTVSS
VL: NFMLTQPHSVSESPGKTVTISCTRSSGSIASNYVQWYQQRPGSAPTTVIYDDNQRPSGVPDRFSGSIDSSSNSASLTISGLKTEDEADYYCQSYDSNNDVFGGGTKVTVL
IC50, TF-1 cell proliferation (human IL-13 [1]): 3 nM

B2: BAK278D6 IgG (antibody, V domains shown)
VH: EVQLVQSGAEVKKPGASVKVSCKASGYTFRNYGLSWVRQAPGQGLEWMGWISANNGDTNYGQEFQGRITMTTETSTNTAHMELRSLRSDDTAVYYCVRDSSSNWARWFFDLWGKGTMVTVSS
VL: SYVLTQPPSVSVAPGQTARIPCGGNNIGSKLVHWYQQKPGQAPVLVVYDDGDRPSGIPERFSGSNSGNTATLTISRIDAGDEADYYCQVWDTGSDPVVFGGGTKLTVL
Kd (human IL-13 [2]): 13.5 nM | koff (human IL-13 [2]): 0.00741 s⁻¹ | kon (human IL-13 [2]): 549000 M⁻¹ s⁻¹

B3: BAK1167F2 IgG4 (antibody, V domains shown)
VH: QVQLVQSGAEVKKPGASVKVSCKASGYTFEQTGVSWVRQAPGQGLEWMGWISANNGDTNYGQEFQGRVTMTTDTSTSTAYMELRSLRSDDTAVYYCARDSSSSWARWFFDLWGRGTLVTVSS
VL: SYVLTQPPSVSVAPGKTARITCGGNIIGSKLVHWYQQKPGQAPVLVIYDDGDRPSGIPERFSGSNSGNTATLTISRVEAGDEADYYCQVWDTGSDPVVFGGGTKLTVL
IC50, HDLM-2 cell proliferation [3]: 1.1 nM | Kd (human IL-13 [4]): 0.136 nM

B4: BAK1167F2 scFv (scFv, V domains shown)
VH: QVQLVQSGAEVKKPGASVKVSCKASGYTFEQTGVSWVRQAPGQGLEWMGWISANNGDTNYGQEFQGRVTMTTDTSTSTAYMELRSLRSDDTAVYYCARDSSSSWARWFFDLWGRGTLVTVSS
VL: SYVLTQPPSVSVAPGKTARITCGGNIIGSKLVHWYQQKPGQAPVLVIYDDGDRPSGIPERFSGSNSGNTATLTISRVEAGDEADYYCQVWDTGSDPVVFGGGTKLTVL
IC50, TF-1 proliferation (Mean TF1) (human IL-13 [5]): 0.2 nM

B5: BAK502G9 IgG4 (antibody, V domains shown)
VH: QVQLVQSGAEVKKPGASVKVSCKASGYTFTNYGLSWVRQAPGQGLEWMGWISANNGDTNYGQEFQGRVTMTTDTSTSTAYMELRSLRSDDTAVYYCARDSSSSWARWFFDLWGRGTLVTVSS
VL: SYVLTQPPSVSVAPGKTARITCGGNIIGSKLVHWYQQKPGQAPVLVIYDDGDRPSGIPERFSGSNSGNTATLTISRVEAGDEADYYCQVWDTGSDPVVFGGGTKLTVL
IC50, HDLM-2 cell proliferation [3]: 4.6 nM

B6: BAK502G9 scFv (scFv, V domains shown)
VH: QVQLVQSGAEVKKPGASVKVSCKASGYTFTNYGLSWVRQAPGQGLEWMGWISANNGDTNYGQEFQGRVTMTTDTSTSTAYMELRSLRSDDTAVYYCARDSSSSWARWFFDLWGRGTLVTVSS
VL: SYVLTQPPSVSVAPGKTARITCGGNIIGSKLVHWYQQKPGQAPVLVIYDDGDRPSGIPERFSGSNSGNTATLTISRVEAGDEADYYCQVWDTGSDPVVFGGGTKLTVL
IC50, TF-1 proliferation (Mean TF1) (human IL-13 [5]): 8 nM

B7: BAK1183H4 IgG4 (antibody, V domains shown)
VH: QVQLVQSGAEVKKPGASVKVSCKASGYTFTNYGLSWVRQAPGQGLEWMGWINYDGGNTQYGQEFQGRVTMTTDTSTSTAYMELRSLRSDDTAVYYCARDSSSSWARWFFDLWGRGTLVTVSS
VL: SYVLTQPPSVSVAPGKTARITCGGNIIGSKLVHWYQQKPGQAPVLVIYDDGDRPSGIPERFSGSNSGNTATLTISRVEAGDEADYYCQVWDTGSDPVVFGGGTKLTVL
IC50, HDLM-2 cell proliferation [3]: 3.5 nM | Kd (human IL-13 [4]): 0.081 nM

B8: BAK1183H4 scFv (scFv, V domains shown)
VH: QVQLVQSGAEVKKPGASVKVSCKASGYTFTNYGLSWVRQAPGQGLEWMGWINYDGGNTQYGQEFQGRVTMTTDTSTSTAYMELRSLRSDDTAVYYCARDSSSSWARWFFDLWGRGTLVTVSS
VL: SYVLTQPPSVSVAPGKTARITCGGNIIGSKLVHWYQQKPGQAPVLVIYDDGDRPSGIPERFSGSNSGNTATLTISRVEAGDEADYYCQVWDTGSDPVVFGGGTKLTVL
IC50, TF-1 proliferation (Mean TF1) (human IL-13 [5]): 0.2 nM

B9: BAK209B11 human IgG4 (antibody, V domains shown)
VH: VQLQESGGGGLVQPGGSLRLSCAASGFTFSSYGMSWVRQAPGKGLEWVSSISASGDSTFYADSVKGRFTISRDNNKNMVFLQVNSLRADDTAVYFCAKDWSQWLVGDAFDVWGRGTTVTVSS
VL: DIQLTQSPSTLSASVGDRVTITCRASQSVSLWVAWYQQRPGKAPKLLIYDGSTLQSGVPARFSGSGSGTEFTLTISSLQPDDFATYYCQQYKTFSTFGQGTKVEIKR
Kd (murine IL-13): 5.1 nM | koff (murine IL-13): 0.0198 s⁻¹ | kon (murine IL-13): 3.9e+06 M⁻¹ s⁻¹
